B1: G3a: non-stabilizing nanobody, SEQ ID NO:50, recognizes the structurally diverse region of NBD1 (protein)
VHH: QVQLQESGGGLVQAGGSLRLSCTASGRAFSWYVMGWFRQAPGKEREFVATVSGNGSRRDYADSVKGRFTISRDNAKNTVYLQMNSLKPEDTAVYYCAASSTYYYTDPEKYDYWGQGTQVTVSS
modifications: G3a Nanobody
B2: T2a: NBD1-specific CFTR-stabilizing nanobody, SEQ ID NO:3, binds epitope 1 (protein)
VHH: QVQLQESGGGLVQAGGSLRLSCAASGSIFRIDAMGWYRQAPGKQRELVAHSTSGGSTDYADSVKGRFTISRDNAKNTVYLQMNSLKPEDTAVYYCNADVRTRWYASNNYWGQGTQVTVSS
modifications: T2a Nanobody amino acid sequence

Columns and labels:
[1] = biological target: T1, 2PT-NBD1 (Homo sapiens, UniProt P13569, A534P/I539T/S492P/V470M); test: NBD1 ELISA dose-response, nanobody binding to immobilized 2PT-NBD1; details: immobilized biotinylated 2PT-NBD1
T1 construct: 2PT-NBD1 mutants (residues 387-646 containing the mutations S492P, A534P, I539T); His6-SUMO (N, cleaved yes); made in house; host or cells: Escherichia coli BL21(DE3) pLysS
T1 sequence (P13569 388-646 V470M/S492P/A534P/I539T): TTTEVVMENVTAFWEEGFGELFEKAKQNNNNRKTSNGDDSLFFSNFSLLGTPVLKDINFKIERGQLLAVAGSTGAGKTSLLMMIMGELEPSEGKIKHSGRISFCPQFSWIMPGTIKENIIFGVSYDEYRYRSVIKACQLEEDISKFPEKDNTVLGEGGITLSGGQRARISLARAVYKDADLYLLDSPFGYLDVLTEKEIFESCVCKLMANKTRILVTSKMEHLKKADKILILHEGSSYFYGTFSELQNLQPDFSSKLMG
Procedure: For dose-response assays, Nunc MaxiSorp 96-well plates (ThermoScientific), were coated with 5 μg/ml NeutrAvidin Biotin-Binding protein (ThermoScientific) overnight at 4° C. and blocked 2 h at room temperature (RT) with 2% milk in phosphate-buffered saline (PBS). Each new reagent addition was preceded by three washes with 200 μl of NBD1 buffer (20 mM HEPES pH 7.5, 150 mM NaCl, and 10% (w/v) glycerol, 10% (w/v) ethylene glycol, 2 mM ATP, 3 mM MgCl2). Then, biotinylated purified NBD1 proteins at 5 μg/ml were immobilized 30 min at RT followed by 1 h RT incubation with 100 μl various concentrations (0-20 μg/ml) of purified nanobodies. […] 50 μl of 1-Step UltraTMB-ELISA (ThermoScientific) was used as a substrate for the peroxidase and intensity of the reaction was proportional to absorbance measured at 450 nm with SynergyMx (BioTek) after addition of 50 μl H2SO4 at 1M.
Affinity constants (KD) and thermodynamic parameters from ITC experiments were determined using one-site binding model with MicroCal Origin 7.0 software (Origin Lab Corp.). […] DSC data were analyzed with the MicroCal Origin 7.0 software (Origin Lab Corp.), from which the unfolding temperature (Tm) was obtained.

[2] = biological target: T2, F508del-CFTR (Homo sapiens, UniProt P13569, DEL508-508); test: Forskolin induced organoid swelling (FIS) assay; type: cell-based; details: F508del homozygous intestinal organoids, lentiviral Nb, 3 μM VX-809 24 h before, Fsk and 3 μM VX-770, 2 h
T2 construct: expressed in transfected cells
T2 sequence (P13569 with tags, fused parts or gaps DEL508-508): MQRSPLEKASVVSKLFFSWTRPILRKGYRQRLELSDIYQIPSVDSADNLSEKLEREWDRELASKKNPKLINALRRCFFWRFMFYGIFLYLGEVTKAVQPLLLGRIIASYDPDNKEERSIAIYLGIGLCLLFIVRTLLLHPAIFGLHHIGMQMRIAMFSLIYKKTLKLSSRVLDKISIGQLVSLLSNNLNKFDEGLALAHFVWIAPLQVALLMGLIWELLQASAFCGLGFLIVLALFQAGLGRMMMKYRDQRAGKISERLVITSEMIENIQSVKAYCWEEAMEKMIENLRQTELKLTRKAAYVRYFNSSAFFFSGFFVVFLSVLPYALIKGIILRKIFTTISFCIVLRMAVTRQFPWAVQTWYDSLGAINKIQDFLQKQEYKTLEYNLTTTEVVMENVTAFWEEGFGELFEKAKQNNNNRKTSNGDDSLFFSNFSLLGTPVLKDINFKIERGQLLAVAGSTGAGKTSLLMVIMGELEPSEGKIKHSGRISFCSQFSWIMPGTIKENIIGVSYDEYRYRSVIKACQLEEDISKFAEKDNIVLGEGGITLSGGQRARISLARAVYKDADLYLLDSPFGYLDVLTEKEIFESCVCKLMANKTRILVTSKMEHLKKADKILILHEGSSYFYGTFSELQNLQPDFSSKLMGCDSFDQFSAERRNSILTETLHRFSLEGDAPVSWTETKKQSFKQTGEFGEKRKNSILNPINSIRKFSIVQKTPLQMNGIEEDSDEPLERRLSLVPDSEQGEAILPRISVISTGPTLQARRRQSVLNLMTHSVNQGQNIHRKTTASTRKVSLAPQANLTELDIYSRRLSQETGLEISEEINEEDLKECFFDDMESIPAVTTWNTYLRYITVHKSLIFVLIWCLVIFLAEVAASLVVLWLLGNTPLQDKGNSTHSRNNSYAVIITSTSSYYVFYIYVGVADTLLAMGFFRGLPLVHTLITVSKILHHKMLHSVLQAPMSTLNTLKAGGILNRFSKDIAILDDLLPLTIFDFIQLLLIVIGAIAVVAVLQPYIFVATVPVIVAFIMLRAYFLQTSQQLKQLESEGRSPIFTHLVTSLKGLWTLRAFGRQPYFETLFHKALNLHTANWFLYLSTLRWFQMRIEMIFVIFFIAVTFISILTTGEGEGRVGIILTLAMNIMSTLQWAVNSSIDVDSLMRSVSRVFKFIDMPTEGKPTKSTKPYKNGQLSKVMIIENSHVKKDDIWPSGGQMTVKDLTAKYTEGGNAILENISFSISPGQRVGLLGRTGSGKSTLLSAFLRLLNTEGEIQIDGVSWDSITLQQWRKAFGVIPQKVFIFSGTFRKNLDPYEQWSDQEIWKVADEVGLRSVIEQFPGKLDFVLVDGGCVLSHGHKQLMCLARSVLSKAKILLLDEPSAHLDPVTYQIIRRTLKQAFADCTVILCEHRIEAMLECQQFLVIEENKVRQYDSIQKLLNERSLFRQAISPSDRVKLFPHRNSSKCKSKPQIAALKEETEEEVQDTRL
Description: Intestinal organoids are 3D epithelial structures grown from a single Lgr5+ stem cell (originating from the crypts of the GI-tract) with an internal lumen that recapitulates key features of the intestinal tissue architecture. When differentiated, the organoids form villus and crypt-like structures. CFTR is located at the apical membrane lining the internal lumen and its activation leads to rapid organoid swelling, in direct correlation with the amount of functional CFTR. This model system thus provides a physiologically relevant assay to evaluate the potential of new therapies with high translational value. CF patient-derived organoids expressing F508del-CFTR from two alleles were transduced with lentiviral vectors encoding the sequence of either a stabilizing nanobody (T2a) or a control nanobody. 24 h before FIS assay, corrector 3 μM VX-809 or DMSO was added. Organoids were stimulated by Fsk (0,8 μM) and 3 μM VX-770 just before FIS. […]
Transduction of human intestinal organoids was performed as described previously (Vidovic, Carlon et al. 2016, Ensinck, De Keersmaecker et al. 2020). […] Organoids were stimulated with forskolin (5 μM) and VX-770 (3 μM) or DMSO, and analyzed by confocal live cell microscopy at 37° C. for 120 min (LSM800, Zeiss, Zen Blue). The total organoid area increase relative to t=0 of forskolin treatment was quantified.

Molecule	EC50 of binding to 2PT-NBD1 [1]	CFTR response (relative increase in organoid surface area) [2]
B1	weaker binding potency	
B2		significantly increased CFTR functionality over time

— US20220289837A1, “Cystic Fibrosis Transmembrane Conductance Regulator Stabilizing Agents” (VIB VZW, priority 2019, published 2022)
